Data reported in patent US20180155451A1 (published 2018).

Biological target: T1, FcγRIIa R (human, UniProt P12318 34-217)
T1 construct: extracellular domain; Soluble extracellular domain with C-terminal His tag, expressed in FreeStyle293 cells; also called FcgRIIa R; FcγRIIa type R; not shown: His tag attached to the C terminus
T1 sequence (looked up): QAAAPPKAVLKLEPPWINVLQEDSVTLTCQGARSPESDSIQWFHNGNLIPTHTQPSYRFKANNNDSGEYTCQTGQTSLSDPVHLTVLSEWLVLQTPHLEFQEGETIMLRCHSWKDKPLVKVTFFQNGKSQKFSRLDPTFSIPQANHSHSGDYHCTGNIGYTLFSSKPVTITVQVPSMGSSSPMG
Test: SPR (Biacore), antibody captured via antigen peptide, FcγRIIa R as analyte; heterodimerized antibody
Protocol: Analysis of interaction between objective antibody and the FcγR was carried out using Biacore T100 (GE Healthcare). HBS-EP+ (GE Healthcare) was used as the running buffer, and the measurement temperature was set to 25° C. Chips produced by immobilizing the antigen peptide by the amine coupling method to a Series S Sencor Chip CM5 (GE Healthcare), or alternatively, chips produced by allowing preliminarily biotinylated antigen peptides to interact with and immobilize onto a Series S Sensor Chip SA (certified) (GE Healthcare) were used. Antibodies of interest were captured onto an antigen peptide-immobilized chip, and allowed to interact to each FcγR diluted with running buffer. To regenerate and repeatedly use the chip, the antibodies captured on the chip were washed off by reacting 10 mM glycine-HCl, pH 1.5.

| Binder | He/Con_2aR |
| --- | --- |
| GpH7-A5/GpH7-B3 variant K334_15Y/GpL16-k0 (antibody, human IgG1, kappa, heterodimerized; mutation in one H chain only; also called He Ab) heavy 1: not shown heavy 2: not shown light: DIVMTQSPLSLPVTPGEPASISCQASESLVHSNRNTYLHWYLQKPGQSPQLLIYKVSNRFSGVPDRFSGSGSGTDFTLKISRVEAEDVGVYYCSQNTHVPPTFGQGTKVEIERTVAAPSVFIFPPSDEQLKSGTASVVCLLNNFYPREAKVQWKVDNALQSGNSQESVTEQDSKDSTYSLSSTLTLSKADYEKHKVYACEVTHQGLSSPVTKSFNRGEC | 108 % of control (GpH7-A5/GpH7-B3/GpL16-k0 = 100) |
| GpH7-A5/GpH7-B3 variant K334_18N/GpL16-k0 (antibody, human IgG1, kappa, heterodimerized; mutation in one H chain only; also called He Ab) heavy 1: not shown heavy 2: not shown light: DIVMTQSPLSLPVTPGEPASISCQASESLVHSNRNTYLHWYLQKPGQSPQLLIYKVSNRFSGVPDRFSGSGSGTDFTLKISRVEAEDVGVYYCSQNTHVPPTFGQGTKVEIERTVAAPSVFIFPPSDEQLKSGTASVVCLLNNFYPREAKVQWKVDNALQSGNSQESVTEQDSKDSTYSLSSTLTLSKADYEKHKVYACEVTHQGLSSPVTKSFNRGEC | 112 % of control (GpH7-A5/GpH7-B3/GpL16-k0 = 100) |
| GpH7-A5/GpH7-B3 variant T335_04F/GpL16-k0 (antibody, human IgG1, kappa, heterodimerized; mutation in one H chain only; also called He Ab) heavy 1: not shown heavy 2: not shown light: DIVMTQSPLSLPVTPGEPASISCQASESLVHSNRNTYLHWYLQKPGQSPQLLIYKVSNRFSGVPDRFSGSGSGTDFTLKISRVEAEDVGVYYCSQNTHVPPTFGQGTKVEIERTVAAPSVFIFPPSDEQLKSGTASVVCLLNNFYPREAKVQWKVDNALQSGNSQESVTEQDSKDSTYSLSSTLTLSKADYEKHKVYACEVTHQGLSSPVTKSFNRGEC | 108 % of control (GpH7-A5/GpH7-B3/GpL16-k0 = 100) |
| GpH7-A5/GpH7-B3 variant T335_09D/GpL16-k0 (antibody, human IgG1, kappa, heterodimerized; mutation in one H chain only; also called He Ab) heavy 1: not shown heavy 2: not shown light: DIVMTQSPLSLPVTPGEPASISCQASESLVHSNRNTYLHWYLQKPGQSPQLLIYKVSNRFSGVPDRFSGSGSGTDFTLKISRVEAEDVGVYYCSQNTHVPPTFGQGTKVEIERTVAAPSVFIFPPSDEQLKSGTASVVCLLNNFYPREAKVQWKVDNALQSGNSQESVTEQDSKDSTYSLSSTLTLSKADYEKHKVYACEVTHQGLSSPVTKSFNRGEC | 110 % of control (GpH7-A5/GpH7-B3/GpL16-k0 = 100) |
| GpH7-A5/GpH7-B3 variant S337_14T/GpL16-k0 (antibody, human IgG1, kappa, heterodimerized; mutation in one H chain only; also called He Ab) heavy 1: not shown heavy 2: not shown light: DIVMTQSPLSLPVTPGEPASISCQASESLVHSNRNTYLHWYLQKPGQSPQLLIYKVSNRFSGVPDRFSGSGSGTDFTLKISRVEAEDVGVYYCSQNTHVPPTFGQGTKVEIERTVAAPSVFIFPPSDEQLKSGTASVVCLLNNFYPREAKVQWKVDNALQSGNSQESVTEQDSKDSTYSLSSTLTLSKADYEKHKVYACEVTHQGLSSPVTKSFNRGEC | 110 % of control (GpH7-A5/GpH7-B3/GpL16-k0 = 100) |
| GpH7-A5/GpH7-B3 variant S267_01G/GpL16-k0 (antibody, human IgG1, kappa, heterodimerized; mutation in one H chain only; also called He Ab) heavy 1: not shown heavy 2: not shown light: DIVMTQSPLSLPVTPGEPASISCQASESLVHSNRNTYLHWYLQKPGQSPQLLIYKVSNRFSGVPDRFSGSGSGTDFTLKISRVEAEDVGVYYCSQNTHVPPTFGQGTKVEIERTVAAPSVFIFPPSDEQLKSGTASVVCLLNNFYPREAKVQWKVDNALQSGNSQESVTEQDSKDSTYSLSSTLTLSKADYEKHKVYACEVTHQGLSSPVTKSFNRGEC | 113 % of control (GpH7-A5/GpH7-B3/GpL16-k0 = 100) |
| GpH7-A5/GpH7-B3 variant T335_06M/GpL16-k0 (antibody, human IgG1, kappa, heterodimerized; mutation in one H chain only; also called He Ab) heavy 1: not shown heavy 2: not shown light: DIVMTQSPLSLPVTPGEPASISCQASESLVHSNRNTYLHWYLQKPGQSPQLLIYKVSNRFSGVPDRFSGSGSGTDFTLKISRVEAEDVGVYYCSQNTHVPPTFGQGTKVEIERTVAAPSVFIFPPSDEQLKSGTASVVCLLNNFYPREAKVQWKVDNALQSGNSQESVTEQDSKDSTYSLSSTLTLSKADYEKHKVYACEVTHQGLSSPVTKSFNRGEC | 105 % of control (GpH7-A5/GpH7-B3/GpL16-k0 = 100) |
| GpH7-A5/GpH7-B3 variant S267_07I/GpL16-k0 (antibody, human IgG1, kappa, heterodimerized; mutation in one H chain only; also called He Ab) heavy 1: not shown heavy 2: not shown light: DIVMTQSPLSLPVTPGEPASISCQASESLVHSNRNTYLHWYLQKPGQSPQLLIYKVSNRFSGVPDRFSGSGSGTDFTLKISRVEAEDVGVYYCSQNTHVPPTFGQGTKVEIERTVAAPSVFIFPPSDEQLKSGTASVVCLLNNFYPREAKVQWKVDNALQSGNSQESVTEQDSKDSTYSLSSTLTLSKADYEKHKVYACEVTHQGLSSPVTKSFNRGEC | 111 % of control (GpH7-A5/GpH7-B3/GpL16-k0 = 100) |
| GpH7-A5/GpH7-B3 variant L328_15Y/GpL16-k0 (antibody, human IgG1, kappa, heterodimerized; mutation in one H chain only; also called He Ab) heavy 1: not shown heavy 2: not shown light: DIVMTQSPLSLPVTPGEPASISCQASESLVHSNRNTYLHWYLQKPGQSPQLLIYKVSNRFSGVPDRFSGSGSGTDFTLKISRVEAEDVGVYYCSQNTHVPPTFGQGTKVEIERTVAAPSVFIFPPSDEQLKSGTASVVCLLNNFYPREAKVQWKVDNALQSGNSQESVTEQDSKDSTYSLSSTLTLSKADYEKHKVYACEVTHQGLSSPVTKSFNRGEC | 136 % of control (GpH7-A5/GpH7-B3/GpL16-k0 = 100) |
| GpH7-A5/GpH7-B3 variant K334_16H/GpL16-k0 (antibody, human IgG1, kappa, heterodimerized; mutation in one H chain only; also called He Ab) heavy 1: not shown heavy 2: not shown light: DIVMTQSPLSLPVTPGEPASISCQASESLVHSNRNTYLHWYLQKPGQSPQLLIYKVSNRFSGVPDRFSGSGSGTDFTLKISRVEAEDVGVYYCSQNTHVPPTFGQGTKVEIERTVAAPSVFIFPPSDEQLKSGTASVVCLLNNFYPREAKVQWKVDNALQSGNSQESVTEQDSKDSTYSLSSTLTLSKADYEKHKVYACEVTHQGLSSPVTKSFNRGEC | 109 % of control (GpH7-A5/GpH7-B3/GpL16-k0 = 100) |
